According to PMC9917171, “Yet Another Similarity between Mitochondrial and Bacterial Ribosomal Small Subunit Biogenesis Obtained by Structural Characterization of RbfA from S. aureus” (International Journal of Molecular Sciences, 2023):

Molecular target: ribosomal binding factor A (RbfA) from Staphylococcus aureus, histidine tag at the N-terminus (S. aureus, UniProt A5ISF4 1-116)
Assay: cryo-EM structure; 30S-RbfA complex reconstituted by mixing mature S. aureus 30S subunits and recombinant RbfA (1:30); overall resolution 2.9 Å
Conditions: both partners purified

B1: ribosomal protein S7 of the S. aureus 30S subunit (natural protein)
chain: MPRKGSVPKRDVLPDPIHNSKLVTKLINKIMLDGKRGTAQRILYSAFDLVEQRSGRDALEVFEEAINNIMPVLEVKARRVGGSNYQVPVEVRPERRTTLGLRWLVNYARLRGEKTMEDRLANEILDAANNTGGAVKKREDTHKMAEANKAFAHYRW
notes: 30S ribosomal protein S7, S. aureus RN6390; model built from the published S. aureus 30S (PDB 5ND8); Stood in the assay as part of the whole 30S subunit (16S rRNA and the other small subunit proteins; S21 and S1 not seen in the density); also called S7 head protein; source: endogenous, within 30S subunits obtained by dissociation of 70S ribosomes purified from S. aureus RN6390
Does B1 bind?
Result: binds
